For 1 molecule, fold smaller Kd^app than PcTF results are on record in paper PMC8928417.

The target of the assay is biotinylated histone H3 peptide trimethylated at lysine 27, H3K27me3 (21–44), P68431. Kind of assay: peptide or protein array.

B1: Pc2TF, bivalent polycomb-based transcription factor with the flexible linker (GGGGS)4, Q9HC52 1-62; Q9HC52 1-62 (designed binder)
chain: MELSAVGERVFAAEALLKRRIRKGRMEYLVKWKGWSQKYSTWEPEENILDARLLAAFEERERGGGGSGGGGSGGGGSGGGGSMELSAVGERVFAAEALLKRRIRKGRMEYLVKWKGWSQKYSTWEPEENILDARLLAAFEERER
modifications: not checked
In the case of B1, the fold smaller Kd^app than PcTF worked out at 2 fold.
